Laboratory results: article PMC5981002, “Probing the interaction interface of the GADD45β/MKK7 and MKK7/DTP3 complexes by chemical cross-linking mass spectrometry” (International Journal of Biological Macromolecules, 2018)

Experiments:
[1] = molecular target: His6-MKK7 Kinase Domain (MKK7_KD, residues 101–405, Ser271Asp and Thr275Asp) (UniProt O14733); assay: other fluorescence titration; tryptophan fluorescence quenching; 1.25 μM MKK7_KD in 10 mM phosphate buffer pH 7.5, peptide added stepwise, 25.0 °C, excitation 295 nm, emission read at 333 nm
[2] = molecular target: T1, Recombinant His6-GADD45β, O75293; assay: cross-linking; SDA reacted first with GADD45β (preliminary reaction order), then photo-cross-linking; conditions: remark: other sources report otherwise
T1 chain: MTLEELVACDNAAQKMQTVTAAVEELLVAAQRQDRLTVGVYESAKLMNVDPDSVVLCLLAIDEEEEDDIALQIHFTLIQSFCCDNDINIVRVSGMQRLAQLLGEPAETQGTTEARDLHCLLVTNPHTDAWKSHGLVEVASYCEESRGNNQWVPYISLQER

[3] = molecular target: T2, His6-MKK7 Kinase Domain (MKK7_KD, residues 101–405, Ser271Asp and Thr275Asp) (UniProt O14733 101-405, Ser271Asp | Thr275Asp); assay: SPR; Biacore3000; GADD45β covalently immobilised on a CM5 chip (EDC/NHS, pH 3.5), soluble MKK7_KD injected; KD averaged over the values at the various concentrations; conditions: both partners purified
T2 construct: Theoretical mass with tag is printed as 36194.8 Da; In the GADD45β cross-linking experiment this protein was first labelled on amines with SDA (NHS-diazirine); also called MKK7_KD 101–405; MKK7_KD (101–405); source: E. coli BL21(DE3), pETDuet-1, purified (His-Trap, Superdex 75 gel filtration)
T2 sequence (looked up): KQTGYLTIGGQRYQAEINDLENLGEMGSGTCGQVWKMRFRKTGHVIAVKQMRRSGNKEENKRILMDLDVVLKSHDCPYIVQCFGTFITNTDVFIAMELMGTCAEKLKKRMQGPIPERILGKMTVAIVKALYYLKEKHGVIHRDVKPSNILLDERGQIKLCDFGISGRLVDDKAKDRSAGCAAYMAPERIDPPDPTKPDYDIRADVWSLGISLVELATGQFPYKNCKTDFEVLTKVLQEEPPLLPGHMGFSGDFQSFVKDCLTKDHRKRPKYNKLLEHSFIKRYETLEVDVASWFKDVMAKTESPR

[4] = molecular target: T2, His6-MKK7 Kinase Domain (MKK7_KD, …); assay: ELISA; MKK7_KD coated on polystyrene wells at 100 nM; biotinylated GADD45β at 10–160 nM; detection with Streptavidin-HRP; 1:1 curve fit; conditions: both partners purified

With “DTP3 (Ac-D-Tyr-D-Arg-D-Phe-NH2) (peptide)” the Kd [1] was 100 nM.

B1: Recombinant His6-GADD45β, O75293 1-160 (natural protein)
chain: T1 chain
In the case of B1, the stoichiometry N [2] is reported as 2.

B2: Recombinant His6-GADD45β (natural protein, UniProt O75293 1-160, looked up)
chain: T1 chain
notes: GADD45β, UniProt O75293, 160 amino acids; The theoretical mass of the tagged protein is printed as 19196.6 Da, against 17,818 Da for the 160-residue protein; also called Growth arrest and DNA-damage-inducible GADD45-family member GADD45β; source: E. coli BL21(DE3), pET28a, purified (His-Trap, Superdex 75 gel filtration)
B2 gave a Kd [3] of roughly 6 nM.

B3: biotinylated GADD45β (natural protein, UniProt O75293 1-160, looked up)
chain: T1 chain
modifications: biotin (site not stated)
notes: GADD45β, UniProt O75293, 160 amino acids; as m1, biotinylated; also called biotin-GADD45β; biotinylated variant of GADD45β; source: E. coli BL21(DE3), pET28a, purified (His-Trap, gel filtration), biotinylated
Work on B3 yielded a Kd [4] of roughly 30 nM.
